{
  "source": "the nanobody polyreactivity screen of Harvey et al. (2022)",
  "data": [
    {"assay": "yeast display, Sf9 membrane polyspecificity reagent, FACS + sequencing; frameworks hold sequencing errors", "summary_of_the_method": "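Galactose induction of a Saccharomyces cerevisiae BJ5465 synthetic nanobody display library ran 36–48 hours. The cells were then stained for 1 hour at 4 °C with 10% biotinylated, detergent-solubilized Sf9 membrane reagent, pulled down on streptavidin microbeads and FACS-sorted into low and high (top ~1%) gates on expression and reagent-binding fluorescence. Labels for polyreactivity follow the gate of origin.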", "values": [
      {"sequence": "QVQLVETGRGLFHAGGSLRLSCAASGGIFRVYAMGWYIPAPGKERELVAAISRSGSSTYYADSVKGRFTISRDNAKNTVYLQMNSLKPEDTAVYYCNAYSQYWLGNNYWGQGTQVTVSS", "polyreactivity (PSR sort gate)": "high polyreactivity"},
      {"sequence": "QVQLVESGGGLVQAGGSLRLSCAASGRTFRVYAIGWYRQAPGKEREFVATISVRGGSTYYADSVKGRFTISRDNAKNNVYLQMNSLKPEDTAVYFCAADSYPYVYALYDYWGQGTQVTVSS", "polyreactivity (PSR sort gate)": "low polyreactivity"},
      {"sequence": "QVQLVESGGGLVQAGGSLRLSCAASGLTFQNNAMGWYRQAPGKERELVAVITRIGGSTYYADSVKGRFTISRDNAKNTVYLQMNSLKPEDTAVYYCAAGYRTRRRLHDYWGQGTQVTVSS", "polyreactivity (PSR sort gate)": "high polyreactivity"},
      {"sequence": "QVQLVESGGGLVQAGGSLRLSCAASGSTFRFNAMGWYRQAPGKEREFVAAISTSGGSTYYADSVKGRFTISRDNAKNTVYLQMNSLKPEDTAVYYCATRRRIRSSFYYDNDYWGQGTQVTVSS", "polyreactivity (PSR sort gate)": "high polyreactivity"},
      {"sequence": "QVQLVESGGGLVQAGGSLRLSCAASGDIFDAYAMGWYRQAPGKERELVAAISRSGGSTYYADSVKGRFTISRDNAKNTVYLQMNSLKPEDTAVYYCATRFSRRYVRYDYWGHGTQVTVSS", "polyreactivity (PSR sort gate)": "high polyreactivity"},
      {"sequence": "QVQLVESGGGLVQAGGSLRLSCAASGITFTSYAMGWYRQAPGKERELVASIDSDDSTNYADSVKGRFTISRDNAKNTVYLQMNSLKPEDTAVYYCAASDNDDWYYVYHYDYWGQGTQVTVSS", "polyreactivity (PSR sort gate)": "low polyreactivity"},
      {"sequence": "QVQLVESGGGLVQAGGSLRLSCAASGRIFPQYAMGWYRQAPGKERELVAGITSVGSTYYADSVKGRFTISRDNAKTTVYLQMNSLKPEDTAVFYCAAVPSRYVRANRRTYRYYYWGQGTQVTVSS", "polyreactivity (PSR sort gate)": "high polyreactivity"},
      {"sequence": "QVQLVESGGGLVQAGGSLRLSCASSGSIFYGYAMGWYRQAPGKERELVAAINNSGVSTYYADSVQGRFTISRDNAKNTVYLQMNSLKPEDTAVYYCNKAGAYPYHYDYWGQGTQGTVSS", "polyreactivity (PSR sort gate)": "low polyreactivity"},
      {"sequence": "QVQLVESGGGLVQAGGSLRLSCAASGSTFYYYAMGWYRQAPGKEREFVASISSRGTSTYYADSVKGRFTISRDNAKNTVYLQMNRLKPEDTAVYYCAARGWGPTRAYDYWGQGTQVTVSS", "polyreactivity (PSR sort gate)": "high polyreactivity"},
      {"sequence": "QVQLVESGGGLVQAGVSLRLSCAASGFISPKYGMGWYRQAPGKERELVAAITSSGGSTYYADSVKGRFTISRDNAKNTVYLQMNSLKPEDTAVYYCATRQVSRLYPYRYNYWGQGTQVTVSS", "polyreactivity (PSR sort gate)": "high polyreactivity"},
      {"sequence": "QVQLVESGGGLVQAGGSLRLSCAASGSIFRYYAMGWYRQAPGKERELVAAISIRGGRTYYADSVKGRFTISRDNAKNTVYLQMNSLKPEDTAVYYCATAFGFTAKYYYWGQGTQVTVSS", "polyreactivity (PSR sort gate)": "high polyreactivity"},
      {"sequence": "QVQHVESGGGLDQAGGSLRLSCAASGRTFAPYAMGWYRQAPGKEREFVAGITWSSSSTYADSVKGRFTISRDNAKNTVYVQMNSLKPDDPAVYYCAARHAKGGNRHYYWGQGTQVTVSS", "polyreactivity (PSR sort gate)": "high polyreactivity"},
      {"sequence": "QVQLVESGGGLVQAGGSLRLSCAASGSTFHYYAMGWYRQAPGKERELVAAITRGGNTYYADSVKGRFTISRGNAKNTVYLQMNSLKPEDTAVYYCAKDNLFEAYRYDYWGQGTQVTVSS", "polyreactivity (PSR sort gate)": "low polyreactivity"},
      {"sequence": "QVQLLESGGGLVQPGGILRLSCAASGSTFVRYAMGWYRQAPGKERELVAAISYRGGSTYYADSVKGLFTISRDNANNSVYLELYSLKPEDTAVYYCAAESRHVEGEYWGQGTQVTVSS", "polyreactivity (PSR sort gate)": "high polyreactivity"},
      {"sequence": "QVQLVESGGGLVQAGGSLRLSCAASGFTLGWYAMGWYRQAPGKERELVAAISRSGGSTYYADSVKGRFTISRDNAKNTVYLQMNCLKPEDTGVYYCAAEVNYAGRAVWSYYWGQGTQVTVSW", "polyreactivity (PSR sort gate)": "high polyreactivity"},
      {"sequence": "QVQLVESGGGLVQAGGSLRLSCAASGIIFKYNVMGWYTQAPGKERELVAAITDSGTSTFYADSVKGRFTISRDNAKNTVSLQMNSLKPEDTAFYYCAADEFSVFTIETYGYDYWGQGTQVTVSS", "polyreactivity (PSR sort gate)": "low polyreactivity"},
      {"sequence": "QVQLVESGGGLVQAGGSLRLSCAASGLTFYYYAMGWYRQAPGKERELVAAISIGGSTDYADSVKGRFTISRDNAKNTVYLQMNSLKPEDTAVYYCNVDDNSEYDYWGQVTQVTVSS", "polyreactivity (PSR sort gate)": "low polyreactivity"},
      {"sequence": "QVQLVESGGGLVQAGGSLRLSCAASGRTFRRYAMGWYRQAPGKERELVAGISRSGVSSYYADSVKGRFTISRDNAKNTVYLQMNSLKPEDTAVYYCATRYVPTLRSSGDYWGQGTQVTVSS", "polyreactivity (PSR sort gate)": "high polyreactivity"},
      {"sequence": "QVQLVESGGGLVQAGGSLRLSCAASGGTFWYYDMGWYRQAPGKERELVAAISSGGNTYYADSVKGRFTISRDNAKNTVYLQMNSLKREDNAVYYWAALPKYGSYYYYPPFDYDYWGHGTQVTVSS", "polyreactivity (PSR sort gate)": "low polyreactivity"},
      {"sequence": "QVQLVESGGGLVQAGGSLRLSCAASGFTFWYYAMGWYRPAPGNERELVASISRTGGTTYYADSVKGRFTISRDNAKNTVDLQMTSLKPEDTAVYYCNARPKVYDREYDYWGQGTQVTVSS", "polyreactivity (PSR sort gate)": "high polyreactivity"},
      {"sequence": "QVQLGESGGGLVQAGGSLRLSCAASGSTFAKYVMGWYRQAPGKERELVAAISRRGSSTYYADSVKGRFTISRDNAKNTVYLQMNSLKPEDTAVYYCNAGSFSRKARRYDYWGQGTQVTVSS", "polyreactivity (PSR sort gate)": "high polyreactivity"},
      {"sequence": "QVQLVESGGGLVQAGGSLRLSCAASGSTFYYNAMGWYSQAPGKERELVAAISSDGSTNYADSVKGRFTISRDNAKNTVNLQMNSLKPEDTAVYYCAKKDFYFAPSPGYYRSRDYWGQGTQVTVSS", "polyreactivity (PSR sort gate)": "low polyreactivity"},
      {"sequence": "QVQLVESVGGLVQAGGSLRLSCAASGFTFQYYALGWYRQAPGKERELVAAISWTGGRTYYADSVKGRFTISRDNAKNTVYLQMNSLKPEDTAVYYCNKVLYYYNSGEYDYWGQGTQVTVSS", "polyreactivity (PSR sort gate)": "high polyreactivity"},
      {"sequence": "QVQLVESGGGLVQAGGSLRLSCAASGFTCKKYAMGWSRQAPGKERDLVASITWYGGSTSYADSVKGRFTISRDNANNTVYLQMNSLKPEDTAVYYCAAATFVYRLRYNRFDYWGQGTQVTVSS", "polyreactivity (PSR sort gate)": "high polyreactivity"},
      {"sequence": "QVQLVESGGGLVQAGGSLRLSCAASGLIFYAYAMGWYRQAPGKERELVAAISGSGGNTYYADSVKGRFTISRDNAKNTVYLQMNSLKPEDTAVYYCAADYTAAYPDSMYYWGQGTQVTVSS", "polyreactivity (PSR sort gate)": "low polyreactivity"},
      {"sequence": "QVQLVESGGGLVQAGGSLRLSCAASGIIFEYYAMGWYRQAPGKERELVAAITRGGSTYYADSVKGRFTISRDNAKNTVYLQMNSLKAEDTAVYYCAADRYYYEYDYWGQGTQVTVSS", "polyreactivity (PSR sort gate)": "low polyreactivity"},
      {"sequence": "QVQHVESRGGLVQAGGSLRLSCAASGITLPKYAMGCYRQAPGKERELAAAISRRGGITYYADSVKGRFTISRDNAKNSVYLQMNSQKPEDTAVYYCAADRTDTRGFDYWGQGTQVTVSS", "polyreactivity (PSR sort gate)": "high polyreactivity"},
      {"sequence": "QVQLVESGGGLVQAGGSLRLSCAASGIIFAGNAMGWYRQAPGKERELVAAITRSTGSTYYADSVKGRFTISRDNAKNTVYLLMNSLKPEDTEVYYCNAGHFAHHHGYYRSKYDYWGQGTQVTVSS", "polyreactivity (PSR sort gate)": "low polyreactivity"},
      {"sequence": "QVQLVESGGGLVQAGGSLRLSCAASGFTFWKYTMGWYRQAPGKERELVATISSSSGSTTYADSVKGRFTISRDNAKNTVYLQMYSLKPEDTAVYYCNVDDPFYSGVVEFDYWGQGTQVTVSS", "polyreactivity (PSR sort gate)": "low polyreactivity"},
      {"sequence": "QVQLVESGGCLVHAGGSHRLRCAASGSTFSRYAMGWYRHAPGKERELVAAISSSGGSTYYADSVKGRFTISRDNAKNTVYLQMNSLKPEDTAVYYCAARIWRTRRYDYWGQGTQVTVSS", "polyreactivity (PSR sort gate)": "high polyreactivity"},
      {"sequence": "QVQLVESGGGLVQAGGSLRLSCAASGSTFGNNAMGWYRQAPGKERELVATIDDTTVSTNYADSVKGRFTISRDNAKNTVYLQMNSLKPEDTAVYYCAADDVDGSPYDYWGQGTQVTVSS", "polyreactivity (PSR sort gate)": "low polyreactivity"},
      {"sequence": "QVQLVESGGGLVQAGGSLRLSCAASGFIIYKYAMGWYRQAPGKERELVAAISWSGGSTYYADSVKGRFTISRDNAKNTVYFQMNSLKPEDTAVYYCAARQWSQGWYDYWGQGTQVTVSS", "polyreactivity (PSR sort gate)": "high polyreactivity"},
      {"sequence": "QLQLVESFTGLVQAGGSLRLSCAASVPTFASYAMGWSRQAPGKERELVAVITRGVRTYYADSVKGRITISRDNAMNTVYLQMNSLKPEDTAVYDCAKERYNANYDTSLYDYWGQGTQGTVSS", "polyreactivity (PSR sort gate)": "low polyreactivity"},
      {"sequence": "QVQLVESVGGLVQAGGSLRLSCAASGRTFGVYAMGWYRQAPGKERELVAAISRRAGNTYYADSVKGRFTISRDNAKNTVYLQMNSLKPEDTAVYYCAAYFSRQYGYWGLGTQVTVSS", "polyreactivity (PSR sort gate)": "high polyreactivity"},
      {"sequence": "QVQLVESGGGLVQAGGSLRLSCAASGSTFYGYAMGWYRQAPGKERELVAVISWRGTSTYYADSVKGRFTISRDNAKNTVYLQMNSLKPEDTAVYYCAARGLWPYDYWGQGTQVTVSS", "polyreactivity (PSR sort gate)": "low polyreactivity"},
      {"sequence": "QVQLQESGGGLVQAGGSLRLSCAASGSISLGRGMGWYRQAPGKREFVVTIAASVNWGTNTNYADSVKGRFTISRDNAKNTLYLQMNSLKPEDTAVYYCAVLPEWETRHDYWGHGTQVTVSS", "polyreactivity (PSR sort gate)": "low polyreactivity"},
      {"sequence": "QVQLVESGGGLVQAGGSLRLSCAASGYTFYAYAMGWYRQAPGTERELVAAITSGSSTYYADSVKGRFTISRDNAKNTVYLQMNSLKPEDTAVYYCSAEVFPGYDYWGQGTQVTVSS", "polyreactivity (PSR sort gate)": "low polyreactivity"},
      {"sequence": "QVQLVESGGGLVQAGGSLRLRCAAYGSIFDKNSMGWYRQAPGKERELVAAITRSGRSTYYADSVKGRFTISRDNAKNTVYLQMNSLKPEDTALYYCAADVWPRWGLYYWGQGTQVTVTS", "polyreactivity (PSR sort gate)": "high polyreactivity"},
      {"sequence": "QVQLVESGGGLVQAGGSLRLSCAASGITFGRNTMGWYRQAPGKERELVAAIDSGGNTYADSVKGRFTISRDNEKNTVYLQMNSLKPEDTAVYYCAVDCGEFSSYGYWGQGTQVTVSS", "polyreactivity (PSR sort gate)": "low polyreactivity"},
      {"sequence": "QVQLVESGGGLVQAGGSLRLSCAASGIIFGRYPMGWYRQAPGKERELVAAITSSGITYYADSVKGRFTISRDNAKNTVYLQMNSLKPEDTAVYYCNADYSIPGYYWPYDYWGQGTQVTVSS", "polyreactivity (PSR sort gate)": "low polyreactivity"},
      {"sequence": "QDQHVESGGGLVQAGGSLRLSCAASGIIFDYNAMGWYRQAPGKERELVAAITSTDNTNYADSVKGRLTISRDNAKNTVYLQMNSLKPEDTAVYYCNSDYWLSVVYAMDYWGQGTQVTVSS", "polyreactivity (PSR sort gate)": "low polyreactivity"}
    ]}
  ]
}
